According to patent US20060110388A1 (APPLIED MOLECULAR EVOLUTION, published 2006):

Key:
[1] = target: T1, β Amyloid peptide 1-40 (human, UniProt P05067 672-711); test: KinExA, mAb, equilibration 16 h
T1 construct: domain: β Amyloid peptide 1-40; Biotinylated peptide 1-40 (Biosource) on avidin Sepharose only captured free antibody in KinExA; also called Aβ 1-40; human Aβ (1-40)
Experimental: (§1) Typical 1× concentrations were 10 pM of antibody active sites (0.75 ng/mL) and an upper antigen concentration of 100 pM (0.43 ng/mL). […] A KinExA™ instrument (Sapidyne) and standard KD run file were then used to determine the KD of the system. Briefly, the KinExA™ flow cell was charged with the β Amyloid peptide coated beads and washed with PBSA. For the first sample, free antibody in solution was captured by the beads washed with PBSA and detected using 1:250 Goat anti-human Cy5 (Jackson Immunochemicals) in PBSA. The flow cell was then flushed, re-charged with beads and the next sample analyzed. The process was repeated until all 12 samples were analyzed.
(§2) For KinExA™ kₒₙ and koff measurements, antigen and antibody were prepared as described above. Antigen and antibody samples at 2× active concentration were prepared in PBSA with 0.2% BSA. Samples were mixed 1:1 and the timing for the experiment started. Typical 1× concentrations were 1 nM antibody active site concentration ([…]) and 2 nM antigen (8.6 ng/mL). A KinExA™ instrument (Sapidyne) and a kineticsdirect run file were used to follow the reaction. Time for each measurement was determined using the manufacturer's instructions. Free antibody remaining in the reaction was captured using β amyloid coated beads packed into the flow cell washed with PBSA and detected at each time point using 1:250 Goat anti-human Cy5 (Jackson) in PBSA. The flow cell was then flushed and recharged with beads for the next measurement, the process continued until a complete decay curve obtained. The data was analyzed using the KinExA™ Inject software.

[2] = target: T1, β Amyloid peptide 1-40; test: BIAcore; against m266
Experimental: (§3) BIAcore™ is an automated biosensor system that measures molecular interactions (Karlsson, et al. (1991) J. Immunol. Methods 145: 229-240). BIAcore™ analyses described herein were carried out at 25° C. In these experiments, antibody was immobilized at low density on a BIAcore™ CM5 or B1 chip. For the m266 antibody goat anti-mouse Fc (Jackson Immunoresearch) immobilized on CM5 in flow cell 2 was used for measuring binding constants. Goat anti-mouse was used as control antibody in flow cell 1. For the humanized antibodies, protein A or protein A/G was immobilized via amine coupling to flow cells 1 and 2 of a B1 or CM5 sensor chip.
Antibody was then captured only to flow cell 2 at desired levels (usually a 10-60 second injection of antibody) and allowed to stabilize for 5 minutes. For these experiments, a fresh aliquot of Aβ 1-40 was thawed and then diluted 1:10 in HBS-EP running buffer. The 1:10 dilution was used to make up a 200 nM Aβ solution which was serially diluted (1:2 dilutions) to a lowest concentration of 6.25 nM. Each concentration was injected over the surface for 5 minutes at a flow rate of 50 μl/min (250 μl total). The Aβ and antibody were eluted from both flow cells with a 40s injection of glycine pH 1.5. The signal is allowed to stabilize for 2 minutes before the next cycle. The data from flow cell 1 is subtracted from flow cell 2 to account for any bulk shifts due to buffer differences or non-specific binding to the sensor chip or Protein A. The various concentrations were injected randomly and each concentration was run in duplicate. Two control runs of buffer only were used to control for any dissociation of antibody from the capture surface. The data was analyzed using the Biaevalution™ software. A 1:1 model with mass transfer and a local Rmax was used as the best fit for the data.
Concentrations of human Aβ (1-40) from 200 nM to 1.6 nM in 2-fold serial dilution were used to obtain on-rate constant. The upper half of Table 6 represents determinations made with a first set of antibody preparations, while the lower half represents determinations made with a second set of antibody preparations

[3] = target: T1, β Amyloid peptide 1-40; test: BIAcore, mAb captured, Aβ 1-40 injected, second set of preparations
Experimental: as §3
Antibody was then captured only to flow cell 2 at desired levels (usually a 10-60 second injection of antibody) and allowed to stabilize for 5 minutes. For these experiments, a fresh aliquot of Aβ 1-40 was thawed and then diluted 1:10 in HBS-EP running buffer. The 1:10 dilution was used to make up a 200 nM Aβ solution which was serially diluted (1:2 dilutions) to a lowest concentration of 6.25 nM. Each concentration was injected over the surface for 5 minutes at a flow rate of 50 μl/min (250 μl total). The Aβ and antibody were eluted from both flow cells with a 40s injection of glycine pH 1.5. The signal is allowed to stabilize for 2 minutes before the next cycle. […] The data was analyzed using the Biaevalution™ software. […]

[4] = target: T1, β Amyloid peptide 1-40; test: KinExA, Fab, equilibration 16 h
Experimental: as §1, §2

T1 sequence (P05067 672-711 limits assumed): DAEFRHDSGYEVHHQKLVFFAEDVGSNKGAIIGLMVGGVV

Kd [1] [nM]	koff [1] [s⁻¹]	kon [1] [M⁻¹ s⁻¹]	Fold Increase (kon) [2] [fold]	kon [3] [M⁻¹ s⁻¹]	Kd [4] [nM]	koff [4] [s⁻¹]	kon [4] [M⁻¹ s⁻¹]	Binder
0.973	0.000371	420000						1C5 monoclonal antibody (IgG1) (antibody, V domains shown) VH: EVQLVESGGGLVKPGGSLRLSCAASGFTFSRYSMSWVRQAPGKGLEWVGQINSVANSTYYPDTVKGRFTISRDDSKNTLYLQMNSLKTEDTAVYYCTTGDFWGQGTLVTVSS VL: DIVMTQTPLSLSVTPGQPASISCRSSQSLIYSDGNAYLHWYLQKPGQSPQLLIYKVSNRFSGVPDRFSGSGSGTDFTLKISRVEAEDVGVYYCSQSTHSPWTFGGGTKVEIK
0.0079	1.01e-05	1.28e+06	5	610000				6C3 monoclonal antibody (IgG1) (antibody, V domains shown) VH: EVQLVESGGGLVKPGGSLRLSCAASGFTFSRYSMSWVRQAPGKGLEWVGQINSRGNSTYYPDTVKGRFTISRDDSKNTLYLQMNSLKTEDTAVYYCTTGDFWGQGTLVTVSS VL: DIVMTQTPLSLSVTPGQPASISCRSSQSLIYSDGNAYLHWYLQKPGQSPQLLIYKVSNRFSGVPDRFSGSGSGTDFTLKISRVEAEDVGVYYCTQSTHSPWTFGGGTKVEIK
					0.0108	1.72e-05	1.59e+06	1A12 Fab (Fab, V domains shown, Fab clone) VH: EVQLVESGGGLVKPGGSLRLSCAASGFTFSRYSMSWVRQAPGKGLEWVGQINIRGNNTYYPDTVKGRFTISRDDSKNTLYLQMNSLKTEDTAVYYCTTGDFWGQGTLVTVSS VL: DIVMTQTPLSLSVTPGQPASISCRSSQSLIYSDGNAYLHWYLQKPGQSPQLLIYKVSNRFSGVPDRFSGSGSGTDFTLKISRVEAEDVGVYYCSQSTHSPWTFGGGTKVEIK
					0.138	4.96e-05	360000	m266 Fab fragment (Fab, V domains shown) VH: EVKLVESGGGLVQPGGSLKLSCAVSGFTFSRYSMSWVRQTPEKRLELVAQINSVGNSTYYPDTVKGRFTISRDNAEYTLSLQMSGLRSDDTATYYCASGDYWGQGTTLTVSS VL: DVVMTQTPLSLPVSLGDQASISCRSSQSLIYSDGNAYLHWFLQKPGQSPKLLIYKVSNRFSGVPDRFSGSGSGTDFTLKISRVETEDLGVYFCSQSTHVPWTFGGGTKLEIK
